# Assay results: US20220296683A1, “ORAL DELIVERY SYSTEM” (University College Dublin, priority 2019, published 2022)
# Assay: Circular dichroism of secondary structure of SiNP-released peptide
# Type: physicochemical
# Settings: CD
# From the text: The behaviour of insulin-SiNPs and exenatide-SiNPs in biologically-relevant buffers depended on media pH and salinity. Both constructs aggregated in PBS, while remaining colloidally-stable in simulated small intestinal fluid (SIF) at pH 6.3 (Supplementary FIGS. 18, 19 for insulin-SiNPs and exenatide-SiNPs, respectively). PBS was used to measure the concentration of the released peptide, while SIF was used to examine secondary structure. For insulin-SiNPs (˜300 nm in diameter, particle concentration of 0.2 mg/mL), release was measured by HPLC in simulated gastric fluid (SGF) at pH 2.3, SIF at pH 6.3, and PBS at pH 7.4. […] Exenatide-SiNP dissolved in PBS in a size-dependent fashion: particles of ˜90 nm in diameter dissolved within 60 min at a particle concentration 0.2 mg/mL, while ˜200 nm diameter particles took over 3 h (Supplementary FIG. 20a). […] Parameters used were as follows: • Measurement window: 200-300 nm. • Data pitch: 0.5 nm • Band width: 2 nm • Response: 4 sec • Scanning speed 50 nm/min • Number of runs in measurement (accumulation): 8 • Temperature: Room temperature (20° C.) Insulin, L-arg solutions, mixtures and insulin core and SiNPs were measured at appropriate concentration in an ultra-low volume (1=1 mm) cuvette and at appropriate concentrations. […]
substance,measurement,value
released exenatide: exenatide released from exenatide-SiNPs in PBS,secondary structure of released peptide vs free peptide,comparable to that of the free peptide
